Source: US20210403584A1 (ARMAGEN, published 2021)

Tests used:
[1] = target: human insulin receptor extracellular domain (HIR ECD) (human) (UniProt P06213); test: ELISA, HIR ECD plated; against the HIR Ab
[2] = target: T1, human insulin receptor extracellular domain (HIR ECD) (human, UniProt P06213 28-956, limits assumed); test: ELISA, recombinant HIR ECD plated, secondary antibody and alkaline phosphatase detection
T1 construct: extracellular domain
Description: The potency of the CHO-derived fusion protein was assessed with the HIR ECD binding ELISA. The affinity of the fusion protein for the HIR extracellular domain (ECD) was determined with an ELISA. Recombinant HIR ECD was plated on Nunc-Maxisorb 96 well dishes and the binding of the HIR Ab, or the HIR Ab-GLB1 fusion protein, to the HIR ECD was detected with a secondary antibody, followed by binding with an alkaline phosphatase detector reagent. […] The MW of the HIR Ab is 150 kDa, and the MW of the HIR Ab-fusion protein is 334 kDa.

With “GUSB-HIR Ab fusion protein (GUSB fused to the amino terminus of the HIR Ab heavy chain) (from UniProt P08236 23-633)” the binding activity lost [1] was over 95%.

B1: chimeric HIR Ab (human insulin receptor antibody) (antibody, human IgG1, kappa, V domains shown)
VH: QVQLQQSGPELVKPGALVKISCKASGYTFTNYDIHWVKQRPGQGLEWIGWIYPGDGSTKYNEKFKGKATLTADKSSSTAYMHLSSLTSEKSAVYFCAREWAYWGQGTLVTVSA
VL: DIQMTQSPSSLSASLGERVSLTCRASQDIGGNLYWLQQGPDGTIKRLIYATSSLDSGVPKRFSGSRSGSDYSLTISSLESEDFVDYYCLQYSSSPWTFGGGTKMEIKR
notes: Chimeric antibody against the extracellular domain of the human insulin receptor; human IgG1/kappa constant regions; also called HIRMAb; HIR MAb
In the case of B1, the EC50 [2] is reported as 0.037 µg/mL.
